Measurements taken from the supplement of paper PMC10567573.

B1: LPCAT4 (parent)
chain: HDPLYGKLFSTYLRPPHTSRGTSQ

Variants of: B1
Experiment: protein stability index of a GFP-peptide fusion (GPS, HEK-293T) (PSI 1-6); higher = more stable
Conditions: c terminus: a fixed tail appended
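Also: lentivirally expressed fusions sorted by FACS into six bins by GFP to DsRed ratio, PSI derived from sequencing read proportions per bin multiplied by bin number.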

Protein stability index, by site and new letter:
T11: M 2.92 | L 2.39 | Y 2.82 | D 3.46 | K 3.45 | H 3.05 | W 2.77 | A 4.05 | G 2.49 | P 2.48 | Q 3.43 | S 2.63 | C 2.48 | I 2.46 | V 2.24 | E 3.07 | N 3.02 | R 2.94 | F 2.75
L4: M 3.29 | P 3.28 | W 2.98 | R 1.58 | T 2.87 | N 2.28 | D 3.74 | G 3.3 | I 2.04 | V 2.66 | K 1.9 | H 3.22 | Y 2.69 | C 3.28 | Q 2.03 | E 3.46 | S 3.35 | A 2.32 | F 3.22
Y12: A 3.74 | P 4.14 | T 3.95 | M 2.76 | V 2.92 | W 2.53 | C 3.01 | F 2.8 | S 3.97 | L 2.85 | G 3.36 | Q 3.53 | E 4.3 | H 3.31 | N 3.4 | I 3.11 | K 3.91 | D 4.06 | R 3.76
G6: Y 2.42 | L 2.18 | P 3.46 | R 1.76 | N 2.08 | S 1.27 | M 1.7 | C 2.17 | E 3.19 | T 1.86 | A 1.77 | W 2.06 | H 1.88 | I 1.6 | K 1.73 | F 1.58 | Q 2.35 | D 3.61 | V 2.56
T18: G 2.41 | R 2.57 | V 2.68 | P 2.45 | K 2.65 | C 2.66 | H 2.61 | S 2.3 | D 2.83 | Y 2.29 | L 2.42 | N 3.05 | F 2.24 | Q 2.61 | I 2.52 | E 2.6 | W 2.12 | A 2.52 | M 2.57
F9: Q 4.37 | D 4.41 | H 4.33 | W 2.43 | G 4.09 | M 4.35 | S 4.74 | N 4.76 | Y 3.8 | L 3.54 | I 3.82 | A 4.32 | P 3.65 | R 4.13 | T 4.12 | K 4.05 | E 4.54 | C 3.71 | V 4.24
Y5: W 2.11 | K 3.43 | D 3.92 | A 2.94 | R 3.18 | L 3.05 | M 3.11 | P 3.65 | T 3.36 | N 2.85 | H 2.98 | I 2.69 | F 2.47 | G 2.76 | S 3.21 | E 3.67 | C 3.69 | Q 3.82 | V 3.3
L8: V 3.62 | M 3.73 | H 4.44 | F 2.15 | K 3.91 | D 4.88 | R 4.27 | E 4.85 | P 4.26 | T 4.31 | S 4.68 | C 4.01 | G 4.66 | Y 2.58 | A 4.59 | Q 4.58 | I 3.25 | N 4.19 | W 2.37
H17: E 3.22 | K 2.38 | L 2.66 | M 2.43 | A 2.79 | C 2.7 | I 2.43 | D 2.82 | W 2.19 | P 2.99 | Y 2.53 | S 2.31 | Q 2.61 | R 2.3 | V 2.53 | F 2.9 | G 2.25 | N 2.59 | T 2.82
P15: S 2.48 | N 2.36 | C 2.11 | H 2.47 | L 2.27 | Y 2.52 | R 2.85 | M 2.51 | Q 2.47 | E 2.13 | A 2.7 | I 2.32 | K 2.6 | F 2.08 | D 3.16 | G 3.2 | V 2.42 | W 2.37 | T 1.88
L13: M 3.1 | T 3.72 | C 2.77 | A 3.73 | H 3.88 | N 4.16 | F 3.21 | S 4.04 | E 3.99 | W 2.77 | D 4.11 | Y 2.78 | R 3.39 | G 3.62 | K 3.44 | I 3.06 | P 3.21 | V 3.72 | Q 4.06
P3: T 2.7 | N 2.44 | D 3.02 | K 2.54 | A 2.5 | M 2.27 | G 2.35 | I 2.29 | W 2.03 | E 3.14 | Q 2.38 | L 2.25 | C 2.17 | S 2.3 | Y 2.55 | H 2.98 | V 2.76 | R 2.55 | F 2.12
S19: V 2.55 | M 2.35 | Q 2.51 | F 2.07 | W 1.95 | T 2.61 | E 2.44 | I 2.79 | C 2.91 | H 2.29 | K 2.62 | A 2.72 | N 3.12 | P 2.7 | D 3.1 | L 2.36 | G 2.8 | R 2.74
K7: C 2.04 | S 2.58 | Y 1.78 | E 3.29 | R 2.46 | V 2.68 | F 1.94 | W 1.96 | N 3.36 | Q 3.12 | P 2.36 | L 2.46 | T 3.43 | I 2.75 | G 3.25 | D 3.28 | M 2.65 | H 2 | A 2.55
R14: W 2.52 | D 3.9 | E 3.4 | I 3.17 | G 3.73 | N 3.04 | H 3.28 | Q 2.83 | A 3.08 | L 2.32 | Y 2.81 | M 2.79 | C 2.78 | P 3.71 | F 2.81 | S 2.69 | K 2.66 | T 3.09 | V 3.17
P16: Q 3.27 | K 3.01 | C 2.26 | L 2.68 | G 3.01 | M 3.13 | Y 2.22 | V 2.46 | A 2.2 | D 3.37 | E 3.19 | I 2.41 | R 2.77 | F 1.77 | N 2.94 | T 2.76 | H 2.52 | S 2.67 | W 2.42
D2: S 2.5 | M 1.91 | Q 2.44 | V 1.85 | Y 2.62 | N 2.1 | W 2.86 | L 2.34 | K 2.63 | P 2.8 | T 1.98 | R 2.63
S10: I 2.49 | G 3.34 | R 3.02 | T 3.63 | N 3.97 | P 4.13 | F 1.96 | K 3.46 | W 2.44 | Y 1.67 | Q 3.78 | D 4.06 | H 3.8 | M 2.72 | V 2.64 | L 2.96 | A 2.96 | C 1.97 | E 4.21
